In US20230383005A1 (University of California, published 2023):
Values belong to the binder of their own block, whether it stands above or below them.

Columns and labels:
[1] = biological target: human CD46 on the surface of living multiple myeloma cells (human), P15529; experiment: cell-based or functional assay
[2] = biological target: T1, recombinant CD46-Fc fusion (human CD46 domains 1 and 2) (human, UniProt P15529 35-159); experiment: BLItz label-free biosensor (ForteBio), sensor coated with YS5 IgG1, CD46-Fc (domains 1 and 2) in solution
T1 construct: domain: domains 1 and 2; also called recombinant human CD46 protein fragment; recombinant CD46-Fc (domains 1 and 2); not shown: Fc from the pFUSE-Fc vector (Invivogen)
T1 sequence (looked up): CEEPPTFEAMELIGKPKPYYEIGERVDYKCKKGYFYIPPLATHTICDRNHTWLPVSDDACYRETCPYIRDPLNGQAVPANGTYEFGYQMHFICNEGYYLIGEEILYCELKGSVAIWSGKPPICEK

[3] = biological target: human CD46 on the surface of living multiple myeloma cells (human) (UniProt P15529); experiment: FACS on living MM1.S cells, MFI fitted with a one-site specific binding model
[4] = biological target: human CD46 on the surface of living multiple myeloma cells (human) (UniProt P15529); experiment: FACS on living RPMI8226 cells, MFI fitted with a one-site specific binding model
[5] = biological target: T1, recombinant CD46-Fc fusion (human CD46 …); experiment: BLItz biolayer interferometry, biosensor coated with YS5 IgG1, CD46-Fc at 100 to 400 nM; one value for all four runs

B1: CD46-ADC (anti-CD46 IgG1 YS5 conjugated to MMAF via the mcvcpab linker) (antibody, V domains shown)
VH: QVQLVQSGGGVVQPGRSLRLACAASGLTVNNYAMHWVRQAPGKGLEWVAVISYDGNNKYYADSVKGRFTISRDNSKNTLYLQMNSLRAEDTAVYYCAKGGGYFDLWGRGTLVTVSS
VL: QSVLTQPPSVSGAPGQRVTISCTGSSSNIGAGYDVHWYQQLPGTAPKLLIYGNNNRPSGVPDRFSGSKSGTSASLAITGLQAEDEADYYCSSYTSGTWLFGGGTKLTVL
modifications: here or on the partner: mcvcpab-MMAF on cysteines freed by TCEP reduction; average drug per antibody 3.3; sites not stated
EC50, killing of primary MM patient cells at 48 hours (Annexin V/PI FACS) [1]: < 10 nM
EC50, viability of MM1.S alone (luciferase, 96 hours) [1]: 2.25 nM
EC50, viability of MM1.S in the presence of BM61 stromal cells [1]: 1.05 nM
EC50, viability of MM1.S in the presence of HS5 stromal cells [1]: 0.77 nM
EC50, viability of MM1.S in the presence of HS27A stromal cells [1]: 0.92 nM

Kd [2]: 2.99 nM
Kd [3]: 2.24 nM
Kd [4]: 1.19 nM
kon [5]: 88000 M⁻¹ s⁻¹
B2: YS5 IgG1 (full-length human anti-CD46 IgG1) (antibody, V domains shown)
VH: B1 VH
VL: B1 VL
notes: also called anti-CD46 antibody; CD46 antibody
